Experimental data from patent US20110008302A1, “Compositions and methods for immortalizing cells and screening for anti-cancer agents” (priority 2007, published 2011).
Residue numbers refer to the chain shown, from its start. In names and notes the source's numbering stands.

B1: Ndy1: JmjC domain-containing histone H3 demethylase, overexpressed from retroviral constructs or immunoprecipitated (protein, UniProt Q6P1G2 1-1309, looked up)
Lysine-specific demethylase 2B: MEAEKDSGRRLRAIDRQRYDENEDLSDVEEIVSVRGFSLEEKLRSQLYQGDFVHAMEGKDFNYEYVQREALRVPLVFRDKDGLGIKMPDPDFTVRDVKLLVGSRRLVDVMDVNTQKGTEMSMSQFVRYYETPEAQRDKLYNVISLEFSHTKLEHLVKRPTVVDLVDWVDNMWPQHLKEKQTEATNALAEMKYPKVKKYCLMSVKGCFTDFHIDFGGTSVWYHVFRGGKIFWLIPPTLHNLALYEEWVLSGKQSDIFLGDRVERCQRIELKQGYTFFIPSGWIHAVYTPVDSLVFGGNILHSFNVPMQLRIYEIEDRTRVQPKFRYPFYYEMCWYVLERYVYCVTQRSYLTQEYQRELMLIDAPRKTSVDGFSSDSWLDMEEESCEQQPQEEEEEEEDKEEEGDGADKTPKPPTDDPTSPTSTPPEDQDSTGKKPKAPAIRFLKRTLSNESEESVKSTSMPTDDPKTPTGSPATEVSTKWTHLTEFELKGLKALVEKLESLPENKKCVPEGIEDPQALLEGVKNVLKEHVDDDPTLAITGVPVVSWPKKTAKNRVVGRPKGKLGPASAVKLAANRTTAGARRRRTRCRKCEACLRTECGECHFCKDMKKFGGPGRMKQSCIMRQCIAPVLPHTAVCLVCGEAGKEDTVEEEEGKFNLMLMECSICNEIIHPGCLKIKESEGVVNDELPNCWECPKCNHAGKTGKQKRGPGFKYASNLPGSLLKEQKMNRDNKEGQEPAKRRSECEEAPRRRSDEHPKKVPADGILRRKSDDVHLRRKRKYEKPQELSGRKRASSLQTSPGSSSHLSPRPPLGSSLSPWWRSSLTYFQQQLKPGKEDKLFRKKRRSWKNAEDRLSLANKPLRRFKQEPEDDLPEAPPKTRESDQSRSSSPTAGPSTEGAEGPEEKKKVKMRRKRRLVNKELSKELSKELNHEIQKTESTLAHESQQPIKSEPESENDEPKRPLSHCERPHRFSKGLNGTPRELRHSLGPGLRSPPRVMSRPPPSASPPKCIQMERHVIRPPPISPPPDSLPLDDGAAHVMHREVWMAVFSYLSHRDLCVCMRVCRTWNRWCCDKRLWTRIDLNRCKSITPLMLSGIIRRQPVSLDLSWTNISKKQLSWLINRLPGLRDLVLSGCSWIAVSALCSSSCPLLRTLDVQWVEGLKDAQMRDLLSPPTDNRPGQMDNRSKLRNIVELRLAGLDITDVSLRLIIRHMPLLSKLQLSYCNHINDQSINLLTAVGTTTRDSLTEVNLSDCNKVTDLCLSFFKRCGNICHIDLRYCKQVTKEGCEQFIAEMSVSVQFGQVEEKLLQKLS
B2: Ndy1 fragment (aa 171-707): bacterially expressed mouse Ndy1 fragment containing the JmjC, CXXC and PHD domains (protein, UniProt Q6P1G2 171-707, looked up, fragment)
chain: MWPQHLKEKQTEATNALAEMKYPKVKKYCLMSVKGCFTDFHIDFGGTSVWYHVFRGGKIFWLIPPTLHNLALYEEWVLSGKQSDIFLGDRVERCQRIELKQGYTFFIPSGWIHAVYTPVDSLVFGGNILHSFNVPMQLRIYEIEDRTRVQPKFRYPFYYEMCWYVLERYVYCVTQRSYLTQEYQRELMLIDAPRKTSVDGFSSDSWLDMEEESCEQQPQEEEEEEEDKEEEGDGADKTPKPPTDDPTSPTSTPPEDQDSTGKKPKAPAIRFLKRTLSNESEESVKSTSMPTDDPKTPTGSPATEVSTKWTHLTEFELKGLKALVEKLESLPENKKCVPEGIEDPQALLEGVKNVLKEHVDDDPTLAITGVPVVSWPKKTAKNRVVGRPKGKLGPASAVKLAANRTTAGARRRRTRCRKCEACLRTECGECHFCKDMKKFGGPGRMKQSCIMRQCIAPVLPHTAVCLVCGEAGKEDTVEEEEGKFNLMLMECSICNEIIHPGCLKIKESEGVVNDELPNCWECPKCNHAGKTGKQKRG
B3: 171-707 Ndy1 fragment containing the Y221A mutation: Ndy1 fragment with Y221A mutation, which abolishes the demethylase activity (protein)
chain: B2 chain with Y51A
modifications: left off: small tags and cut ends

Key:
[1] = system: MEFs; assay: Ndy1 overexpression in serially passaged MEFs, real time PCR of p16Ink4a and p19Arf mRNA; type: cell-based, mouse
Experimental: FIG. 14 panel B is a set of bar graphs of MEFs overexpressing Ndy1 that were plated at a concentration of 10^5 cells per 6 cm dish and serially passaged. In passage P5, P10, and P15 total mRNA was isolated and analyzed by real time PCR for the relative mRNA levels of p16^Ink4a and p19^Arf. The graphs show the fold decrease of p16^Ink4a and p19^Arf mRNAs in MEFs that overexpress Ndy1 normalized to control empty-vector transduced cells from 3 independent infections.
RNA was isolated with the RNeasy mini kit (Qiagen #74104). cDNAs of these mRNAs were synthesized with RETROscript (Ambion #AM1710). PCR reactions were carried out in triplicate with iQ SYBRGreen Supermix (Bio-Rad #170-8882) in an Opticon2 continuous fluorescence detector (MJ Research). The following set of primers have been used to amplify the mouse: Ezh2: F-5′-ACTGCTGG CACCGTCTGATG-′3 (SEQ ID NO: 38) and R-5′-TCCTGAGAA ATAATCTCCCCACAG-′3 (SEQ ID NO: 39),
p16^Ink4a: F-5′-GTGTGCATGA CGTGCGGG-′3 (SEQ ID NO: 42) and R-5′-GCAGTTCGA ATCTGCACCGTAG-′3 (SEQ ID NO: 43), p19^Arf: F-5′GCTCTGGCT TTCGTGAACATG-′3 (SEQ ID NO: 44) and R-5′-TCGAATCTG CACCGTAG′TTGAG'3 (SEQ ID NO: 45),
Replicative senescence is characterized by the dramatic upregulation of p16^Ink4a (>100-fold, FIG. 16) and p19^Arf (>10-fold). Since, p16^Ink4a inhibits the cyclin D/CDK4-6 complex that mediates the phosphorylation of Rb at Ser807/811, and Ndy1 promotes the phosphorylation of Rb at this site as shown in Examples herein, whether the phosphorylation of Rb in Ndy1-transduced MEFs can be linked to a defect in the induction of the Ink4a/Arf locus was tested. To address this question, the relative levels of p16^Ink4a and p19^Arf mRNA in passaged MEFs stably expressing Ndy1 were determined in examples herein.

[2] = system: H3K36me2 peptide; assay: Fluorescence coupled demethylation assay; type: biochemical; settings: for efficiency of demethylation of H3K36me2 peptide: bacterially expressed fragment
Experimental: (§1) For assay of in vitro histone demethylation, cells from a confluent 15 cm dish were harvested and the cell pellet was resuspended in 5 packed cell volumes of Buffer A (10 mM HEPES pH 7.9, 1.5 mM MgCl2, 10 mM KCl, 0.5 mM DTT, and 0.2 mM PMSF) and centrifuged at 1500 rpm for 5 minutes. Buffer A was added up to a final of 3 original packed cell volumes and the suspension was incubated on ice for 10 minutes. Cells were transferred to a Wheaton A Dounce homogenizer and lysed with 10 strokes. Nuclei were pelleted by centrifuging at maximum speed for 5 min in a microcentrifuge. Nuclei were resuspended in Buffer B (20 mM HEPES, pH 7.9, 100 mM KCl, 0.5 mM DTT and 0.2 mM PMSF) and disrupted by sonication. After preclearing with 20 μl protein A-agarose beads, the supernatant was incubated with either myc- or hemagglutinin-specific monoclonal antibody (5 μg/sample) and 20 μl protein A-agarose beads overnight at 4° C., the sample was washed three times with 1 ml Buffer B and the purified immune complex was incubated overnight at 4° C. with myc or HA peptide to release Ndy1/KDM2B from the beads. Demethylation reactions were carried out in 10 mM HEPES pH 7.9, 50 mM NaCl, 1 mM α-ketoglutarate, 2 mM ascorbate, 30-70 μM Fe(NH4)2(SO4)2, 0.25 mg/ml BSA and contained 6 μg of bulk histone per 90 μl reaction. Reactions were incubated at 37° C. for 1-3 hours and analyzed by 18% SDS-PAGE and Western-blotting with histone specific antibodies.
(§2) Fluorescent assays were carried out as previously described (Couture, J. F., et al. (2007) Nat Struct Mol Biol 14, 689-95) under the reaction conditions above. One unit of enzyme activity is determined as amount of Ndy1 that produces 1 μmol of formaldehyde per min, incubated with 340 μM peptide substrate at 37° C. under the above conditions. The sequences of the H3K4(me3) and H3K36(me2) peptides used in the biochemical studies were: ART-K(me3)-QTARKST (SEQ ID NO: 79) and ATGGV-K(me2)-KPHRY (SEQ ID NO: 80) respectively and were synthesized at Tufts University Core facility.
(§3) Using a fluorescence coupled demethylation assay, a bacterially expressed mouse Ndy1 fragment containing the JmjC, CXXC and PHD domains (aa 171-707) was here shown to demethylate both H3K36me2 and H3K4me3 peptides, with high and low efficiencies respectively (FIG. 20 panel B and FIG. 22). Cloning and bacterial expression of Ndy1 fragments was accomplished using fragments 1-701 and 171-701 of mouse Ndy1, which were amplified using specific primers and were cloned directly into pET102/DTOPO vector (Invitrogen) using of the TOPO-cloning methodology. The C-terminally His-tagged fusion proteins were purified from BL21(DE3) cells using Ni2+agarose beads (QIAGEN) and according to the manufacturer instructions. Flow cytometry analysis of histone modifications was determined in HEK293 cells transfected with either pIRES-GFP-empty vector (Stratagene) or the same vector containing the wild type or the H283Y JmjC domain point mutant of Ndy1. After 48 hours, cells were harvested and fixed in 1% paraformaldehyde for 10 min. Cells were washed twice with PBS, and were permeabilized with 0.5% saponin in PBS for 20 min and were blocked with 3% bovine serum albumin (BSA). […] (Alexa Fluor 635, Invitrogen, #A31577) followed by fluorescence-activated cell sorting using a CyAn high performance flow cytometer (Dako Cytomation).

[3] = system: bulk histone; assay: In vitro histone demethylation assay with immunoprecipitated native Ndy1 (Western blot); type: biochemical; settings: mouse and human Ndy1 immunoprecipitated from MEFs and IMR90 cells
[4] = system: HEK293 cells; assay: Flow cytometry of global histone modifications in HEK293 cells transfected with Ndy1; type: cell-based, human; settings: HEK293 cells transiently transfected with Ndy1
Description: as §3, with “Ndy1.” for “Ndy1. After 48 hours, cells were harvested and fixed in 1% paraformaldehyde for 10 min. Cells were washed twice with PBS, and were permeabilized with 0.5% saponin in PBS for 20 min and were blocked with 3% bovine serum albumin (BSA).”
To confirm the activity and specificity of the Ndy1 histone demethylase in vivo, flow cytometry was used to quantitatively assess the global levels of histone H3K36me2 and H3K4me3 in HEK293 cells transiently transfected with Ndy1.

[5] = system: H3K4me3 peptide; assay: Fluorescence coupled demethylation assay; type: biochemical; settings: bacterially expressed fragment
Experimental: as §1, §2, §3

Molecule	attenuation of induction of p16Ink4a ([1]; passage 5, relative to empty vector transduced MEFs)	reduction of induction of p19Arf ([1]; passage 10)	attenuation of induction of p16Ink4a ([1]; passage 10, relative to empty vector transduced MEFs) [%]	reduction of induction of p19Arf ([1]; passage 15) [%]	attenuation of induction of p16Ink4a ([1]; passage 15, relative to empty vector transduced MEFs) [%]	specific activity towards the H3K36me2 versus the H3K4me3 peptide ([2]; Ndy1 fragments expressed in E. coli)	H3K4me3 demethylase activity [3]	H3K36me2 demethylase activity [3]	histone H3K4me3 demethylase activity in vivo [4]	histone H3K36me2 demethylase activity in vivo [4]	efficiency of demethylation of H3K4me3 peptide [5]	efficiency of demethylation of H3K36me2 peptide [2]
B1	about 55%	about 43%	~62	~34	~90	three times higher	weak	strong	weak	strong	–	–
B2	–	–	–	–	–	–	–	–	–	–	low	high
B3	–	–	–	–	–	–	–	–	–	–	failed to demethylate	failed to demethylate
